Measurements taken from patent US7626003B2, “Genetically engineered cDNA of rat bcl-x gene and an improved protein” (priority 1999, dated 2009).

How the values were obtained:
[1] = test system: chondrocyte of cartilage slice from Osteoarthritis patients; experiment: Cell death-inhibiting activity in chondrocytes of cartilage slice culture; format: cell-based, human; conditions: 0.2 μM in culture medium, up to day 9, hematoxylin-eosin (FIGS. 19-24)
Method: Cartilage was obtained from the femoral bone head of Osteoarthritis patients undergoing total hip arthroplasty. The cartilage tissue above the subchondral bone (10×10 mm; 1.2 mm in thickness) was aseptically sliced using a single-edged razor. The cartilage slice was placed in a 24-well plate and incubated with a DMEM/Ham F-12 mixed medium (Life Technologies) containing 20% FBS (fetal bovine serum) at 37° C. in a CO2 incubator. For a comparative experiment, the expression vector of TAT-Bcl-xL was constructed in the same manner as TAT-Bcl-xFNK, and TAT-Bcl-xL protein was partially purified from Escherichia coli (TAT-Bcl-xL preparation has the same purity). TAT-Bcl-xFNK (prepared from the inclusion body) or TAT-Bcl-xL (prepared from the inclusion body) were added to the culture medium at a concentration of 0.2 μM. As a control, an equal amount of PBS (a solvent used to solubilize the proteins) containing 7M urea and 1 mM DTT was added. The culture medium containing the protein was changed on day 4 and day 7. After incubation for 4 days and 9 days, the cartilage slice was frozen to prepare frozen sections using a cryostat. The sections were stained with hematoxylin-eosin to evaluate the death of chondrocyte.

hepatocytes = experiment: Inhibition of the death of hepatocytes caused by steroid hormone (dexamethasone) in mice; format: in vivo; conditions: mouse, 100 μg intraperitoneal 3 hours before 0.5 mg dexamethasone i.p., liver sections 3 hours later (FIGS. 25-27)
Method: Three 8-week old mice ([…], 20 g body weight, female) were divided into 3 groups (A, B and C). To the mouse of Group A was intraperitonealy administered PBS solution (0.8 ml) containing 100 μg of TAT-Bcl-xFNK protein (prepared from the soluble fraction). To the mice of Group B and Group C (control) was intraperitonealy administered PBS (0.8 ml) in the same manner. The mice were put back into cages, and after a lapse of 3 hours 0.5 ml of 25% ethanol/PBS solution containing 0.5 mg of a steroid hormone (dexamethasone) was intraperitonealy administered to the mice of Group A and Group B. To the mouse of Group C was intraperitonealy administered 0.5 ml of 25% ethanol/PBS solution. They were put back into cages, and after a lapse of 3 hours killed. Their livers were taken out, and frozen to prepare frozen sections with a cryostat. The sections were stained with hematoxylin-eosin to evaluate the death of hepatocyte.

HeLa cells = experiment: Incorporation of TAT-Bcl-xFNK protein in cells (immunofluorescence); format: cell-based; conditions: 1 μM in medium, 24 hours, FITC immunofluorescence (FIG. 18)
Method: TAT-Bcl-xFNK protein (1 μM) was added to DMEM/F-12 (Life Technologies) containing 10% FBS (fetal bovine serum), a medium for HeLa cells cultured in a Slide Chamber (Lab-Tek), and the cells were incubated in a CO2 incubator for 24 hours. The cells were then washed twice with PBS. The cells were fixed with paraformaldehyde (4%) dissolved in PBS at room temperature for 45 min. The cells were washed 3 times with PBS (5 minutes/round), and incubated in PBS containing 10% FBS for 20 min. The cells were washed 3 times with PBS (5 minutes/round), and treated with 1.5% FBS-PBS solution containing an anti-rat Bcl-xL monoclonal antibody 35-32 (murine origin) for 30 min. The cells were washed 3 times with PBS (5 minutes/round), and treated with 1.5% FBS-PBS solution containing an anti-mouse IgG antibody conjugated with FITC, for 30 minutes. The cells were washed 3 times with PBS (5 minutes/round), mounted in PBS, and sealed to observe under a fluorescence microscope.

[2] = test system: human leukemia cell line Jurkat
Method: For the transfected Jurkatbcl-xFNK cells prepared in Example 2, the resistance (non-sensitivity) to a variety of apoptosis-inducing stimuli was examined.
The cells were suspended in RPMI1640 medium at 1×10^5 cells/ml, to which staurosporine (20 nM), TN-16 (10 μM), camptothecin (10 μM), hydroxyurea (1 mM), trichostatin A (0.25 μg/ml), hydrogen peroxide (0.05 mM), or paraquat (1 mM) was then added. And the cells were incubated. The surviving cells were counted by the trypan blue exclusion everyday.

[3] = test system: human leukemia cell line Jurkat; experiment: Resistance of Jurkat transfectants to apoptosis induced by serum withdrawal (trypan blue exclusion); format: cell-based; conditions: serum-free RPMI1640, surviving cells counted daily (FIG. 3)
Method: The cells were washed 3 times with PBS and suspended in RPMI1640 medium containing no serum at 1×10^5 cells/ml. […] The number of the cells was carefully controlled to be less than 5×10^5 cells/ml. When the cell number was expected to exceed the limitation, the culture medium was diluted 2 fold. Every 3 days, the half of the serum-free medium was replaced with the fresh medium.

[4] = test system: murine premyeloid cell line FDC-P1; experiment: Resistance of FDC-P1 transfectants to apoptosis induced by depletion of the cytokine IL-3; format: cell-based
Text: (§1) For the transfectant FDC-P1bcl-xFNK cells prepared in Example 2, the resistance was examined to a variety of apoptosis-inducing stimuli. In these figures, the empty marks, ⋄, □, Δ, ∇, and ◯ represent 5 independent transfectants, FDC-P1bcl-xFNK-1, -2, -3, -4, and -5, respectively. […] The mark ▪ represents FDC-P1vec in which the empty vector plasmid DNA has been introduced.
The result are shown in FIG. 16, in which the number of the surviving cells immediately after depletion of IL-3 was taken as 100%. In this experiment, the cells other than FDC-P1vec were diluted 5 times with the fresh medium containing no IL-3 every 3rd day.

[5] = test system: human leukemia cell line Jurkat; experiment: Resistance of Jurkat transfectants to heat treatment (trypan blue exclusion); format: cell-based; conditions: 45° C. for 10 minutes (FIG. 12)
[6] = test system: human leukemia cell line Jurkat; experiment: Resistance of Jurkat transfectants to anti-Fas antibody (trypan blue exclusion); format: cell-based; conditions: anti-Fas antibody CH-11 1-1000 ng/ml, 1 day (FIG. 4)
Method: The results are shown in FIG. 4, wherein the number of the cells incubated without the antibody was taken as 100%.

[7] = test system: human leukemia cell line Jurkat; experiment: Dehydrogenase activity of Jurkat transfectants after heat treatment (WST-1 assay); format: cell-based; conditions: 45° C. for 10 minutes, 1st day (FIG. 13)
Method: The cells were harvest by centrifugation, then suspended in an equal amount of the fresh culture medium, and incubated at 37° C. In addition, dehydrogenase activities of the cells (100 μl of the culture broth) were determined at 1st day using the Cell Counting Kit (Dojin Chemical) and WST-1 as a substrate (WST-1 Assay). The results are shown in FIG. 13, wherein the enzyme activity of the cells without heat treatment was taken as 100%.

[8] = test system: Chinese hamster ovary cell CHO; experiment: Incubation of CHO transfectants in serum-free medium; format: cell-based
Method: The CHO cells (1×10^5 cells) were suspended in culture medium DMEM/F-12 (GIBCO BRL) containing 10% fetal bovine serum, and incubated in a 60-mm dish overnight. The linearized pEF1-BOSbcl-xY22F/Q26N/R165K (10 μg) and the linearized pST-neoB (0.5 μg) having a drug Geneticin-resistant gene were introduced into the CHO cells using a SuperFect Transfection Reagent kit (Qiagen). As a control, the linearized empty vector pEF1-BOS or the linearized pEF1-BOSbcl-x were introduced together with the linearized pST-neoB into the CHO cells. After the transfection treatment, the cells were incubated in culture medium DMEM/F-12 containing 10% fetal bovine serum overnight. Geneticin (700 μg/ml) was added, and the incubation was continued to yield the transfected cells. In the same manner as in Example 3, the transfectants expressing the improved protein Bcl-xFNK or the wild-type Bcl-xL abundantly and to the same level were selected. Thus, CHObcl-x, CHObcl-xFNK, and CHOvec (transfected with the empty vector) were obtained.
Three transfectants, CHObcl-x, CHObcl-xFNK, and CHOvec, prepared in Example 6 were incubated in culture medium DMEM/F-12 containing 10% fetal bovine serum. The cells (1×10^3 cells) were plated in a 100-mm dish containing the medium DMEM/F-12 containing 3% fetal bovine serum. […]

[9] = test system: murine premyeloid cell line FDC-P1; experiment: Resistance of FDC-P1 transfectants to TN-16 and staurosporine (WST-1 assay); format: cell-based; conditions: TN-16 50 μM
Method: as §1
The cells were suspended in culture medium at 2×10^5 cells/ml, to which TN-16 (50 μM) and staurosporine (10 nM) was then added. The dehydrogenase activity of the cells (100 μl of the culture broth) was determined daily using the Cell Counting Kit (Dojin Chemical) and WST-1 as a substrate (WST-1 Assay). The enzyme activity was taken as 100% immediately before addition of the agents.

Row | Molecule | inhibition of the death of chondrocyte [1] | inhibition of degeneration of hepatic tissue and cell death caused by dexamethasone (hepatocytes) | incorporation of the protein into cells (HeLa cells) | resistance of transfected cells to cytotoxic drugs [2] | survival of transfected cells after serum withdrawal [3] | growth in the absence of IL-3 ([4]; medium without IL-3) | resistance to apoptosis induced by depletion of IL-3 ([4]; medium without IL-3 but with serum (FIG. 16)) | resistance of transfected cells to heat treatment [5] | resistance of transfected cells to anti-Fas antibody [6] | dehydrogenase activity after heat treatment (WST-1) [7] | growth of transfected CHO cells in serum-free medium ([8]; DMEM/F-12 lacking serum from day 6, another 6 days (FIG. 17)) | dying or dead cells in colonies in serum-free medium ([8]; compared with CHObcl-x expressing Bcl-xL (FIG. 17)) | resistance of transfected cells to TN-16 and staurosporine ([9]; FDC-P1 transfectants (5 independent), staurosporine 10 nM (FIGS. 14, 15)) | dehydrogenase activity under TN-16 and staurosporine (WST-1) ([9]; FDC-P1 transfectants, staurosporine 10 nM, daily)
1 | TAT-Bcl-xFNK: Bcl-xFNK in which a protein-transduction-domain peptide of HIV TAT protein is fused at the N-terminal (protein) YGRKKRRQRRRMSQSNRELVVDFLSYKLSQKGFSWSNFSDVEENRTEAPEETEPERETPSAINGNPSWHLADSPAVNGATGHSSSLDAREVIPMAAVKQALREAGDEFELRYRRAFSDLTSQLHITPGTAYQSFEQVVNELFRDGVNWGRIVAFFSFGGALCVESVDKEMQVLVSKIASWMATYLNDHLEPWIQENGGWDTFVDLYGNNAAAESRKGQERFNRWFLTGMTVAGVVLLGSLFSRK | inhibits the death of chondrocyte more strongly than TAT-Bcl-xL | markedly inhibited | has passed through the cellular membrane and has been incorporated in the cells | – | – | – | – | – | – | – | – | – | – | –
2 | Bcl-xFNK: improved protein of rat Bcl-xL, SEQ ID NO: 3, with substitutions Tyr22Phe; Gln26Asn; Arg165Lys (protein, Artificial Sequence Modified Protein of SEQ ID NO 2, Gln26Asn; Arg165Lys) MSQSNRELVVDFLSYKLSQKGFSWSNFSDVEENRTEAPEETEPERETPSAINGNPSWHLADSPAVNGATGHSSSLDAREVIPMAAVKQALREAGDEFELRYRRAFSDLTSQLHITPGTAYQSFEQVVNELFRDGVNWGRIVAFFSFGGALCVESVDKEMQVLVSKIASWMATYLNDHLEPWIQENGGWDTFVDLYGNNAAAESRKGQERFNRWFLTGMTVAGVVLLGSLFSRK | – | – | – | high resistance to all of the cytotoxic drugs tested | survived for a longer period than the wild-type Bcl-xL-expressing cells | could grow even in the absence of IL-3 | higher resistance than the transfectant expressing the wild-type Bcl-xL | high resistance to heat treatment | high resistance to the highly concentrated anti-Fas antibody | maintained at high level even after heat treatment | grew far better than CHOvec | fewer cells were dying or dead | high resistance to treatment with TN-16 and staurosporine | maintained at high level
3 | Bcl-xL: wild-type protein expressed from the rat bcl-x gene, SEQ ID NO: 2 (protein, listed as Rattus norvegicus) MSQSNRELVVDFLSYKLSQKGYSWSQFSDVEENRTEAPEETEPERETPSAINGNPSWHLADSPAVNGATGHSSSLDAREVIPMAAVKQALREAGDEFELRYRRAFSDLTSQLHITPGTAYQSFEQVVNELFRDGVNWGRIVAFFSFGGALCVESVDKEMQVLVSRIASWMATYLNDHLEPWIQENGGWDTFVDLYGNNAAAESRKGQERFNRWFLTGMTVAGVVLLGSLFSRK | – | – | – | – | survived longer than the control parent cells and the vector-transfected cells | – | – | – | – | – | – | – | – | –
